Source: patent US20190038623A1
Blank lines part the entries; values can stand above or below the substance they belong to.

Columns and labels:
[1] = target: human complement component C5 (human) (UniProt P01031); assay: cell-based or functional assay
[2] = target: complement component C3 (human) (UniProt P01024); assay: cell-based or functional assay

Inhibition (%) of CAP activity, CAP Wieslab assay, Experiment 2, Anti-C5 0.781 µg/mL, Compound 1 0 µM [1]: 8.1% | Inhibition (%) of CAP activity, CAP Wieslab assay, Experiment 2, Anti-C5 1.56 µg/mL, Compound 1 0 µM [1]: 20% | Inhibition (%) of CAP activity, CAP Wieslab assay, Experiment 2, Anti-C5 3.13 µg/mL, Compound 1 0 µM [1]: 46% | Inhibition (%) of CAP activity, CAP Wieslab assay, Experiment 2, Anti-C5 6.25 µg/mL, Compound 1 0 µM [1]: 61% | Inhibition (%) of CAP activity, CAP Wieslab assay, Experiment 2, Anti-C5 12.5 µg/mL, Compound 1 0 µM [1]: 75% | Inhibition (%) of CAP activity, CAP Wieslab assay, Experiment 2, Anti-C5 25 µg/mL, Compound 1 0 µM [1]: 85% | Inhibition (%) of CAP activity, CAP Wieslab assay, Experiment 2, Anti-C5 50 µg/mL, Compound 1 0 µM [1]: 90% | Inhibition (%) of CAP activity, CAP Wieslab assay, Experiment 3, Anti-C5 0.781 µg/mL, Compound 1 0 µM [1]: 10% | Inhibition (%) of CAP activity, CAP Wieslab assay, Experiment 3, Anti-C5 1.56 µg/mL, Compound 1 0 µM [1]: 16% | Inhibition (%) of CAP activity, CAP Wieslab assay, Experiment 3, Anti-C5 3.13 µg/mL, Compound 1 0 µM [1]: 31% | Inhibition (%) of CAP activity, CAP Wieslab assay, Experiment 3, Anti-C5 6.25 µg/mL, Compound 1 0 µM [1]: 45% | Inhibition (%) of CAP activity, CAP Wieslab assay, Experiment 3, Anti-C5 12.5 µg/mL, Compound 1 0 µM [1]: 64% | Inhibition (%) of CAP activity, CAP Wieslab assay, Experiment 3, Anti-C5 25 µg/mL, Compound 1 0 µM [1]: 79% | Inhibition (%) of CAP activity, CAP Wieslab assay, Experiment 3, Anti-C5 50 µg/mL, Compound 1 0 µM [1]: 90% | Inhibition (%) of CAP activity, CAP Wieslab assay, Experiment #1, Anti-C5 0.547 µg/mL, Compound 1 0 µM [1]: 11% | Inhibition (%) of CAP activity, CAP Wieslab assay, Experiment #1, Anti-C5 1.09 µg/mL, Compound 1 0 µM [1]: 11% | Inhibition (%) of CAP activity, CAP Wieslab assay, Experiment #1, Anti-C5 2.19 µg/mL, Compound 1 0 µM [1]: 27% | Inhibition (%) of CAP activity, CAP Wieslab assay, Experiment #1, Anti-C5 4.38 µg/mL, Compound 1 0 µM [1]: 47% | Inhibition (%) of CAP activity, CAP Wieslab assay, Experiment #1, Anti-C5 8.75 µg/mL, Compound 1 0 µM [1]: 60% | Inhibition (%) of CAP activity, CAP Wieslab assay, Experiment #1, Anti-C5 17.5 µg/mL, Compound 1 0 µM [1]: 76% | Inhibition (%) of CAP activity, CAP Wieslab assay, Experiment #1, Anti-C5 35 µg/mL, Compound 1 0 µM [1]: 87%
Substance: murine monoclonal antibody to human C5, isotype IgG1K, product No. A217 from Quidel

IC50 (µM), Inhibition of C3 Fragment deposition on artificial PNH cells (flow cytometry, anti-C3c staining, N = 2) [2]: 2.2 µM | IC50 (µM), Inhibition of C3 Fragment deposition on rabbit erythrocytes (flow cytometry, 20% C5-depleted normal human serum), N = 1 [2]: 1.4 µM
Substance: Compstatin (peptide)
Inhibition (%) of CAP activity, CAP-mediated hemolysis of rabbit erythrocytes, Experiment 2, Compstatin 0.469 µM, Compound 1 0 µM [2]: 6.9% | Inhibition (%) of CAP activity, CAP-mediated hemolysis of rabbit erythrocytes, Experiment 2, Compstatin 0.934 µM, Compound 1 0 µM [2]: 6% | Inhibition (%) of CAP activity, CAP-mediated hemolysis of rabbit erythrocytes, Experiment 2, Compstatin 1.88 µM, Compound 1 0 µM [2]: 10% | Inhibition (%) of CAP activity, CAP-mediated hemolysis of rabbit erythrocytes, Experiment 2, Compstatin 3.75 µM, Compound 1 0 µM [2]: 15% | Inhibition (%) of CAP activity, CAP-mediated hemolysis of rabbit erythrocytes, Experiment 2, Compstatin 7.5 µM, Compound 1 0 µM [2]: 41% | Inhibition (%) of CAP activity, CAP-mediated hemolysis of rabbit erythrocytes, Experiment 2, Compstatin 15 µM, Compound 1 0 µM [2]: 80% | Inhibition (%) of CAP activity, CAP-mediated hemolysis of rabbit erythrocytes, Experiment 2, Compstatin 30 µM, Compound 1 0 µM [2]: 98% | Inhibition (%) of CAP activity, CAP-mediated hemolysis of rabbit erythrocytes, Experiment 3, Compstatin 0.469 µM, Compound 1 0 µM [2]: 13% | Inhibition (%) of CAP activity, CAP-mediated hemolysis of rabbit erythrocytes, Experiment 3, Compstatin 0.934 µM, Compound 1 0 µM [2]: 17% | Inhibition (%) of CAP activity, CAP-mediated hemolysis of rabbit erythrocytes, Experiment 3, Compstatin 1.88 µM, Compound 1 0 µM [2]: 25% | Inhibition (%) of CAP activity, CAP-mediated hemolysis of rabbit erythrocytes, Experiment 3, Compstatin 3.75 µM, Compound 1 0 µM [2]: 40% | Inhibition (%) of CAP activity, CAP-mediated hemolysis of rabbit erythrocytes, Experiment 3, Compstatin 7.5 µM, Compound 1 0 µM [2]: 63% | Inhibition (%) of CAP activity, CAP-mediated hemolysis of rabbit erythrocytes, Experiment 3, Compstatin 15 µM, Compound 1 0 µM [2]: 97% | Inhibition (%) of CAP activity, CAP-mediated hemolysis of rabbit erythrocytes, Experiment 3, Compstatin 30 µM, Compound 1 0 µM [2]: 98% | Inhibition (%) of CAP activity, CAP-mediated hemolysis of rabbit erythrocytes, Experiment 4, Compstatin 0.469 µM, Compound 1 0 µM [2]: 9% | Inhibition (%) of CAP activity, CAP-mediated hemolysis of rabbit erythrocytes, Experiment 4, Compstatin 0.934 µM, Compound 1 0 µM [2]: 12% | Inhibition (%) of CAP activity, CAP-mediated hemolysis of rabbit erythrocytes, Experiment 4, Compstatin 1.88 µM, Compound 1 0 µM [2]: 22% | Inhibition (%) of CAP activity, CAP-mediated hemolysis of rabbit erythrocytes, Experiment 4, Compstatin 3.75 µM, Compound 1 0 µM [2]: 34% | Inhibition (%) of CAP activity, CAP-mediated hemolysis of rabbit erythrocytes, Experiment 4, Compstatin 7.5 µM, Compound 1 0 µM [2]: 64% | Inhibition (%) of CAP activity, CAP-mediated hemolysis of rabbit erythrocytes, Experiment 4, Compstatin 15 µM, Compound 1 0 µM [2]: 98% | Inhibition (%) of CAP activity, CAP-mediated hemolysis of rabbit erythrocytes, Experiment 4, Compstatin 30 µM, Compound 1 0 µM [2]: 99% | Inhibition (%) of CAP activity, CAP-mediated hemolysis of rabbit erythrocytes, Experiment #1, Compstatin 0.469 µM, Compound 1 0 µM [2]: 7.3% | Inhibition (%) of CAP activity, CAP-mediated hemolysis of rabbit erythrocytes, Experiment #1, Compstatin 0.934 µM, Compound 1 0 µM [2]: 3.6% | Inhibition (%) of CAP activity, CAP-mediated hemolysis of rabbit erythrocytes, Experiment #1, Compstatin 1.88 µM, Compound 1 0 µM [2]: 8.6% | Inhibition (%) of CAP activity, CAP-mediated hemolysis of rabbit erythrocytes, Experiment #1, Compstatin 3.75 µM, Compound 1 0 µM [2]: 17% | Inhibition (%) of CAP activity, CAP-mediated hemolysis of rabbit erythrocytes, Experiment #1, Compstatin 7.5 µM, Compound 1 0 µM [2]: 38% | Inhibition (%) of CAP activity, CAP-mediated hemolysis of rabbit erythrocytes, Experiment #1, Compstatin 15 µM, Compound 1 0 µM [2]: 65% | Inhibition (%) of CAP activity, CAP-mediated hemolysis of rabbit erythrocytes, Experiment #1, Compstatin 30 µM, Compound 1 0 µM [2]: 98% | Inhibition (%) of CAP-mediated hemolysis of PNH erythrocytes, Experiment 2, Compstatin 4.69 µM alone (Compound 1 0 µM) [2]: 0% | Inhibition (%) of CAP-mediated hemolysis of PNH erythrocytes, Experiment 2, Compstatin 9.38 µM alone (Compound 1 0 µM) [2]: 0% | Inhibition (%) of CAP-mediated hemolysis of PNH erythrocytes, Experiment 2, Compstatin 18.8 µM alone (Compound 1 0 µM) [2]: 0% | Inhibition (%) of CAP-mediated hemolysis of PNH erythrocytes, Experiment 2, Compstatin 37.5 µM alone (Compound 1 0 µM) [2]: 0% | Inhibition (%) of CAP-mediated hemolysis of PNH erythrocytes, Experiment 2, Compstatin 75 µM alone (Compound 1 0 µM) [2]: 10% | Inhibition (%) of CAP-mediated hemolysis of PNH erythrocytes, Experiment 2, Compstatin 150 µM alone (Compound 1 0 µM) [2]: 71% | Inhibition (%) of CAP-mediated hemolysis of PNH erythrocytes, Experiment 2, Compstatin 300 µM alone (Compound 1 0 µM) [2]: 99% | Inhibition (%) of CAP-mediated hemolysis of PNH erythrocytes, Experiment #1, Compstatin 4.69 µM alone (Compound 1 0 µM) [2]: 0% | Inhibition (%) of CAP-mediated hemolysis of PNH erythrocytes, Experiment #1, Compstatin 9.38 µM alone (Compound 1 0 µM) [2]: 0% | Inhibition (%) of CAP-mediated hemolysis of PNH erythrocytes, Experiment #1, Compstatin 18.8 µM alone (Compound 1 0 µM) [2]: 0% | Inhibition (%) of CAP-mediated hemolysis of PNH erythrocytes, Experiment #1, Compstatin 37.5 µM alone (Compound 1 0 µM) [2]: 0% | Inhibition (%) of CAP-mediated hemolysis of PNH erythrocytes, Experiment #1, Compstatin 75 µM alone (Compound 1 0 µM) [2]: 9% | Inhibition (%) of CAP-mediated hemolysis of PNH erythrocytes, Experiment #1, Compstatin 150 µM alone (Compound 1 0 µM) [2]: 86% | Inhibition (%) of CAP-mediated hemolysis of PNH erythrocytes, Experiment #1, Compstatin 300 µM alone (Compound 1 0 µM) [2]: 98%
